Experimental data: patent publication US20200369766A1 (LEIDOS, published 2020)
Values joined by “and” are separate entries in the source; they are usually repeats but may differ in a detail not shown here. Equal entries are not always repeated.

Legend:
[1] = target: T1, human LAG3 expressed on Jurkat T cell line (human, UniProt P18627 23-525); test: cell-based or functional assay
T1 sequence (looked up): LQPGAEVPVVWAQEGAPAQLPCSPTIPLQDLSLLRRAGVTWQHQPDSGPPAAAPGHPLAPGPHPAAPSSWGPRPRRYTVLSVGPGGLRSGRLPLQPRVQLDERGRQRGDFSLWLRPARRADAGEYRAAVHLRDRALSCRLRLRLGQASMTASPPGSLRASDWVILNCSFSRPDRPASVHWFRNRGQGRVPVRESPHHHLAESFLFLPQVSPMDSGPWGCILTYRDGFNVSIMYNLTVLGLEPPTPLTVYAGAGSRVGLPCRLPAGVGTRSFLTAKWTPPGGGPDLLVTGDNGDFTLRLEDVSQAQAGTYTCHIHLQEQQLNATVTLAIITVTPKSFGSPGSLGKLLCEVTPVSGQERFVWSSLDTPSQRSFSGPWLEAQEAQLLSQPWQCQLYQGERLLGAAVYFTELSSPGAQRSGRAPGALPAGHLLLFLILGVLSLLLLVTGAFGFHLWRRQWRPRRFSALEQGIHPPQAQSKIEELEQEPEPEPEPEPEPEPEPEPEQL

[2] = target: Tag1-LAG3; test: HTRF LAG3/MHC-II; peptide log M -5.80618
[3] = target: Tag1-LAG3; test: HTRF LAG3/MHC-II; peptide log M -8.81648
[4] = target: Tag1-LAG3; test: HTRF LAG3/MHC-II; peptide log M -9.41854
[5] = target: Tag1-LAG3; test: HTRF LAG3/MHC-II; peptide log M -10.6227
[6] = target: Tag1-LAG3; test: HTRF LAG3/MHC-II; peptide log M -4
[7] = target: Tag1-LAG3; test: HTRF LAG3/MHC-II; peptide log M -7.0103
[8] = target: Tag1-LAG3; test: HTRF LAG3/MHC-II; peptide log M -4.60206
[9] = target: Tag1-LAG3; test: HTRF LAG3/MHC-II; peptide log M -8.21442
[10] = target: Tag1-LAG3; test: HTRF LAG3/MHC-II; peptide log M -7.61236
[11] = target: Tag1-LAG3; test: HTRF LAG3/MHC-II; peptide log M -10.0206
[12] = target: Tag1-LAG3; test: HTRF LAG3/MHC-II; peptide log M -5.20412
[13] = target: Tag1-LAG3; test: HTRF LAG3/MHC-II; peptide log M -6.40824

SAPWEPLHWPEDWWQGTGEW [LAG3-11]
fold inhibition (fold increase in luciferase activity, RLUs at 100 µM against 0.64 µM) [1]: ~2.8 fold

HIQNWSYWLNQDMMNQQVWKS [LAG3-56]
fold inhibition (fold increase in luciferase activity, RLUs at 100 µM against 0.64 µM) [1]: ~2.2 fold

ISQAVHAAHAEINEAGR [ovalbumin (OVA) peptide]
HTRF ratio [2]: 8830 and 9370 and 9180 | HTRF ratio [3]: 8720 and 8640 and 8680 | HTRF ratio [4]: 8400 and 8790 and 8620 | HTRF ratio [5]: 9090 and 8890 and 8630 | HTRF ratio [6]: 8490 and 8910 and 7150 | HTRF ratio [7]: 8970 and 8380 and 8650 | HTRF ratio [8]: 8470 and 8680 and 8450 | HTRF ratio [9]: 8620 and 8990 and 9220 | HTRF ratio [10]: 8780 and 8570 and 9020 | HTRF ratio [11]: 8990 and 8460 and 8360 | HTRF ratio [12]: 8620 and 8580 and 9020 | HTRF ratio [13]: 8630 and 9280 and 9190
